Assay results as given in patent US20240400663A1 (Regeneron, published 2024).

B1: H1H29127P (antibody, V domains shown)
VH: QVQLVESGGGVVQPGRSLRLSCAASGFTFSSYGMHWVRQAPGKGLEWVAAIWYDGSNKYYADSVKGRFTISRDNSKNTLYLQMNSLRAEDTAVYFCARGEHYYGSGPFDPWGQGTLVTVSS
VL: DIQMTQSPSSLSASVGDRVTITCRASQSISNYLNWYQQKPGKAPKLLIFAASSLQSGVPSRFSGSGSGTDFTLTISSLQPEDFATYYCQQSYSSPLTFGGGTKVEIKR
B2: H1H29104P (antibody, V domains shown)
VH: EVQLVESGGGLVQPGRSLRLSCAASGFRFDDYAMHWVRQAPGKGLEWVSGINWNSGGKGYADSVQGRFTISRDNAKNSLYLQMNSLRTEDTALYYCAKDRGIAARLLSRDAFDMWGQGTMVTVSS
VL: DIQLTQSPSFLSASVGDRVTITCWASQDVSSYLAWYQQKPGKSPKLLIFAASTLQGGIPSRFSGSGSGTEFTLTISSLRPEDFATYYCQHLNTYPYTFGQGTKLEIKR
B3: H1H29143P (antibody, V domains shown)
VH: EVQLVESGGGLVQPGGSLRLSCAASGFTFNNYAMSWVRQAPGRGLEWVSAISGSGDSTYYSDSVKGRFTISRDNSKNTLYLQMNSLRAEDTAVYYCAKDQGLYYYGSGSFDYWGQGTLVTVSS
VL: not shown
B4: H1H29147P2 (antibody, V domains shown)
VH: QVQLVQSGAEVKNPGSSVKVSCKASGGTFSSYTINWVRQAPGQGLEWMGGIIPLYGTANYAQKFQARVTISTDESTNTAYMELSNLRFEDTAVYFCASTLELRAFDAFDIWGQGTMVTVSS
VL: not shown
B5: H1H29187P2 (antibody, V domains shown)
VH: QVQLVESGGGVVQPGRFLRLSCAASGFTFSNSGMHWVRQAPGKGLEWVAGIWHDGSYKYYVDSVKGRFTISRDNSKNTLFLQMNSLRAEDTAVYYCARDDYYASGTSVDVWGQGTTVTVSS
VL: not shown
B6: H1H29209P2 (antibody, V domains shown)
VH: QLQLQESGPGLVKPSETLSLTCTVSGGSISSRSHYWGWIRQPPGKGLEWIGSIYYSGSTYYNPSLKSRVTISVDTSKNQFSLKLSSVTAADTAVYYCARLGWYAEEAFEIWGQGTMVTVSS
VL: not shown
B7: H1H29214P2 (antibody, V domains shown)
VH: QLQLQESGPGLVKPSETLSLTCTVSGGSISSSSYYWGWIRQPPGKGLEWIGSIYYSGSTYYNPSLKSRVTISVDTSKNQFSLKLSSVTAADTAVYYCARQGRWERENFDYWGQGTLVTVSS
VL: not shown
B8: H1H29198P2 (antibody, V domains shown)
VH: QVQLVQSGAEVKKPGASVKVSCKVSGYTLTELSMHWVRQAPGKGLEWMGGFDPEHGKIIYAQKFQGRVTMTEDTSTDTAYMELSSLRSEDTAVYYCATFYNWNSYYFGMDVWGHGTTVTVSS
VL: not shown
B9: H1H29215P2 (antibody, V domains shown)
VH: QVQLQQWGAGLLKPSETLSLTCAVSDESFSDYYWTWIRQPPGKGLEWIGEITHSGSTHYNPSLKSRVTLSVDTSKNHFSLSLNSVTAADTAIYYCARGGDYGGLLDYWGQGTLVTVSS
VL: not shown
B10: H1H29196P2 (antibody, V domains shown)
VH: EVQLVESGGDLVQPGGSLRLSCAASGFAVNGDYFSWVRQAPGKGLEWISVIYSSGNTYYADSVKGRFTISRHNSKNTLYLQMSSLRPEDTAVYYCARDFPPMSGADYWGQGTLVTVSS
VL: not shown
B11: H1H29109P (antibody, V domains shown)
VH: EVQLVESGGGLVQPGRSLRLSCAVSGFTFDDYAMHWVRQAPGKGLEWVSGISWNSGDIDYADSVKGRFTISRDNAKNSLYLQMNSLRAEDTALYYCAKDTLSGTGTTWYYFDYWGQGTLVTVSS
VL: DIQLTQSPSFLSASVGDRVTITCWASQGISSYLIWYQQKPGKAPKLLIYAASTLQSGVPSRFSGSGSGTEFTLTISSLQPEDFATYYCQQVNSYPLTFGGGTKVEIKR
B12: H1H29106P (antibody, V domains shown)
VH: QVQLVESGGGVVQSGRSLRLSCAASSFTFSSYGMHWVRQSPGKGLEWVAVISYDGSNKYYGDFVRGRFTISRDNSKNTLYLQMNSLRAEDTAMYYCAREVRRYYYYGMDVWGQGTTVTVSS
VL: not shown
B13: H1H29207P2 (antibody, V domains shown)
VH: EVQLVESGGGLVQPGGSLRLSCAASGFTFSSYAMNWVRQAPGKGLEWVSAVSGSADITNYADSVKGRFTISRDNSKHTLYLQMNSLRAEDTAVYYCAKDKVYNWNYGIYYGMDVWGQGTTVTVSS
VL: not shown

These binders were tested against T1, PfRH5 of Plasmodium falciparum strain Dd2 (on live parasites) (Plasmodium falciparum) (assay: cell-based or functional assay).

First: B1
Second: B2
The “Maximum growth inhibition (%) Dd2” value of the first is higher: 56.9% for the first, 54.1% for the second.

With B3 the “Maximum growth inhibition (%) Dd2” value was 56%.

The binders below were run against T2, PfRH5 of Plasmodium falciparum strain 7G8 (on live parasites) (Plasmodium falciparum) (assay: cell-based or functional assay).

Compared with B4, B5 is higher in “Max growth inhibition (%) 7G8, no chloroquine” value: 47.3% for the first, 49.3% for the second.

Each binder was assayed against T3, PfRH5 of Plasmodium falciparum strain FCR-1/FVO (on live parasites) (Plasmodium falciparum) (assay: cell-based or functional assay).

First: B4
Second: B5
The “Percent Maximum Growth Inhibition, FCR-1/FVO, mAb (6.67 µM) + AHIS (10%)” value of the first is lower: 86.2% for the first, 89.4% for the second.

Going from B4 to B5, the “Percent Maximum Growth Inhibition, FCR-1/FVO, mAb (6.67 µM) + ANS (10%)” value falls from 80.3% to 80.1%.

First: B4
Second: B5
The “Percent Maximum Growth Inhibition, FCR-1/FVO, mAb (6.67 µM) + HHIS (10%)” value of the first is lower: 83.4% for the first, 85.4% for the second.

Going from B4 to B5, the “Percent Maximum Growth Inhibition, FCR-1/FVO, mAb (6.67 µM) + HNS (10%)” value rises from 85.6% to 85.9%.

First: B4
Second: B5
The “Percent Maximum Growth Inhibition, FCR-1/FVO, mAb (6.67 µM) + No serum” value of the first is lower: 84.1% for the first, 85.3% for the second.

The binders below were run against PfRH5 of Plasmodium falciparum strain Cam3.II (on live parasites) (Plasmodium falciparum) (assay: cell-based or functional assay).

Compared with B1, B6 is higher in “Max growth inhibition (%) Cam3.II” value: 47% for the first, 47.3% for the second.

Going from B7 to B2, the “Max growth inhibition (%) Cam3.II” value rises from 46.7% to 50%.

Compared with B4, B8 is lower in “Max growth inhibition (%) Cam3.II” value: 51.9% for the first, 14.7% for the second.

Going from B9 to B10, the “Max growth inhibition (%) Cam3.II” value falls from 27.2% to 6.09%.

First: B5
Second: B3
The “Max growth inhibition (%) Cam3.II” value of the first is lower: 49.2% for the first, 53.2% for the second.

First: B11
Second: B12
The “Max growth inhibition (%) Cam3.II” value of the first is lower: 35.9% for the first, 51.7% for the second.

With B13 the “Max growth inhibition (%) Cam3.II” value was 45.3%.

Each binder was assayed against PfRH5 of Plasmodium falciparum strain D10 (on live parasites) (Plasmodium falciparum) (assay: cell-based or functional assay).

First: B1
Second: B6
The “Max growth inhibition (%) D10” value of the first is higher: 74.4% for the first, 72.7% for the second.

Going from B7 to B2, the “Max growth inhibition (%) D10” value falls from 76.5% to 55.7%.

Compared with B4, B8 is lower in “Max growth inhibition (%) D10” value: 81.4% for the first, 4.38% for the second.

First: B9
Second: B10
The “Max growth inhibition (%) D10” value of the first is higher: 35.8% for the first, 14.3% for the second.

First: B5
Second: B3
The “Max growth inhibition (%) D10” value of the first is higher: 79.6% for the first, 79.4% for the second.

Going from B11 to B12, the “Max growth inhibition (%) D10” value rises from 44.8% to 74.9%.

In the case of B13, the “Max growth inhibition (%) D10” value is reported as 73.9%.

Target: T1, PfRH5 of Plasmodium falciparum strain …
Assay: cell-based or functional assay
Remark: another data set of the same source

Going from B1 to B6, the “Max growth inhibition (%) Dd2” value falls from 64.7% to 38.1%.

Going from B7 to B2, the “Max growth inhibition (%) Dd2” value rises from 47.2% to 61.3%.

Going from B4 to B8, the “Max growth inhibition (%) Dd2” value falls from 65.3% to 10.1%.

First: B9
Second: B10
The “Max growth inhibition (%) Dd2” value of the first is higher: 22.8% for the first, -1.65% for the second.

Compared with B5, B3 is lower in “Max growth inhibition (%) Dd2” value: 66% for the first, 62.7% for the second.

Going from B11 to B12, the “Max growth inhibition (%) Dd2” value rises from 42% to 54%.

In the case of B13, the “Max growth inhibition (%) Dd2” value is reported as 61.3%.

These binders were tested against PfRH5 of Plasmodium falciparum strain RF7 (on live parasites) (Plasmodium falciparum) (assay: cell-based or functional assay).

First: B1
Second: B6
The “Max growth inhibition (%) RF7” value of the first is higher: 25.7% for the first, 11.9% for the second.

Going from B7 to B2, the “Max growth inhibition (%) RF7” value rises from 11.2% to 23.6%.

Going from B4 to B8, the “Max growth inhibition (%) RF7” value falls from 31.4% to 1.53%.

Compared with B9, B10 is lower in “Max growth inhibition (%) RF7” value: 11.3% for the first, 3.78% for the second.

Going from B5 to B11, the “Max growth inhibition (%) RF7” value falls from 32.7% to 8.24%.

Going from B12 to B13, the “Max growth inhibition (%) RF7” value rises from 27.4% to 31.1%.

Target: T3, PfRH5 of Plasmodium falciparum strain …
Assay: cell-based or functional assay
Remark: another data set of the same source

Going from B1 to B6, the “Max growth inhibition (%) FCR-1/FVO” value falls from 61.1% to 19.2%.

First: B7
Second: B2
The “Max growth inhibition (%) FCR-1/FVO” value of the first is lower: 13.1% for the first, 67.4% for the second.

Compared with B4, B8 is lower in “Max growth inhibition (%) FCR-1/FVO” value: 70.3% for the first, 11.1% for the second.

Compared with B9, B10 is lower in “Max growth inhibition (%) FCR-1/FVO” value: 54% for the first, 21.9% for the second.

Compared with B5, B3 is lower in “Max growth inhibition (%) FCR-1/FVO” value: 72.2% for the first, 67.2% for the second.

Compared with B11, B12 is lower in “Max growth inhibition (%) FCR-1/FVO” value: 56.7% for the first, 54.3% for the second.

B13 was tested, and the “Max growth inhibition (%) FCR-1/FVO” value was 69.2%.

Target: T2, PfRH5 of Plasmodium falciparum strain …
Assay: cell-based or functional assay
Remark: another data set of the same source

Going from B1 to B6, the “Max growth inhibition (%) 7G8” value falls from 61.2% to 49.9%.

First: B7
Second: B2
The “Max growth inhibition (%) 7G8” value of the first is higher: 56.7% for the first, 35.2% for the second.

First: B4
Second: B8
The “Max growth inhibition (%) 7G8” value of the first is higher: 65.2% for the first, 5.31% for the second.

First: B9
Second: B10
The “Max growth inhibition (%) 7G8” value of the first is higher: 33.2% for the first, 23.4% for the second.

Going from B3 to B11, the “Max growth inhibition (%) 7G8” value falls from 61.9% to 39%.

Compared with B12, B13 is higher in “Max growth inhibition (%) 7G8” value: 55.5% for the first, 58.7% for the second.

Each binder was assayed against PfRH5 of Plasmodium falciparum strain HB3 (on live parasites) (Plasmodium falciparum) (assay: cell-based or functional assay).

Going from B1 to B6, the “Max growth inhibition (%) HB3” value falls from 59.4% to 52.4%.

Compared with B7, B2 is lower in “Max growth inhibition (%) HB3” value: 59.1% for the first, 39.8% for the second.

First: B4
Second: B8
The “Max growth inhibition (%) HB3” value of the first is higher: 64.8% for the first, 15.5% for the second.

First: B9
Second: B10
The “Max growth inhibition (%) HB3” value of the first is higher: 30.1% for the first, 26.8% for the second.

Going from B5 to B3, the “Max growth inhibition (%) HB3” value falls from 63.9% to 60.9%.

Compared with B11, B12 is higher in “Max growth inhibition (%) HB3” value: 32.2% for the first, 48.4% for the second.

In the case of B13, the “Max growth inhibition (%) HB3” value is reported as 49.3%.

These binders were tested against PfRH5 of Plasmodium falciparum strain W2-mef (on live parasites) (Plasmodium falciparum) (assay: cell-based or functional assay).

First: B1
Second: B6
The “Max growth inhibition (%) W2-mef” value of the first is higher: 53.6% for the first, 39.6% for the second.

Compared with B7, B2 is lower in “Max growth inhibition (%) W2-mef” value: 52.7% for the first, 47.4% for the second.

First: B4
Second: B8
The “Max growth inhibition (%) W2-mef” value of the first is higher: 64.7% for the first, -3.61% for the second.

Going from B9 to B10, the “Max growth inhibition (%) W2-mef” value falls from 37.2% to 17%.

Compared with B5, B3 is lower in “Max growth inhibition (%) W2-mef” value: 67.3% for the first, 58.3% for the second.

Compared with B11, B12 is higher in “Max growth inhibition (%) W2-mef” value: 37.9% for the first, 48.9% for the second.

In the case of B13, the “Max growth inhibition (%) W2-mef” value is reported as 65.2%.
